Where two headings read alike, the source gives them in different places.
B1: FGF21: mature human FGF21 protein, endocrine fibroblast growth factor (protein)
chain: HPIPDSSPLLQFGGQVRQRYLYTDDAQQTEAHLEIREDGTVGGAADQSPESLLQLKALKPGVIQILGVKTSRFLCQRPDGALYGSLHFDPEACSFRELLLEDGYNVYQSEAHGLPLHLPGNKSPHRDPAPRGPARFLPLPGLPPALPEPPGILAPQPPDVGSSDPLSMVGPSQGRSPSYAS
modifications: biotin (EZ-Link Sulfo-NHS-LC-Biotin) in the solid-phase binding assay; biotinylated as the labelled ligand in AlphaScreen
notes: mature human FGF21 protein, endocrine fibroblast growth factor
B2: Fc-FGF21: mature human FGF21 polypeptide fused with the human Fc fragment at the N-terminus (protein)
chain: B1 chain
modifications: left off: Fc (human), N-terminal, kept
notes: mature human FGF21 polypeptide fused with the human Fc fragment at the N-terminus

Key:
β-Klotho/FGFR complex = assay: Elk1-luciferase reporter assay in HEK293T reporter cells transiently transfected with full-length WT β-Klotho; assay type: cell-based, human; settings: 6 h treatment, mean ± SD of three independent experiments, read-out: EC50, stimulation of Elk1-luciferase reporter activity (KLB WT)
Method: (§1) To measure the signaling activity of β-Klotho mutants, ELK luciferase assay was performed in HEK293T cells that were stably transfected with reporter constructs containing 5 × UAS upstream of luciferase and Gal4 DNA-binding domain fused to ELK1. Briefly, HEK293T reporter cells were maintained in DMEM supplemented with 10% (v/v) FBS (Gibco) and 2 mM GlutaMax (Gibco) in a 37 °C incubator with 5% CO2. Cells were plated on 96-well plates in growth medium and incubated overnight. The next day, cells were transfected with expression vectors encoding full-length β-Klotho WT or mutants using the Lipofectamine 2000 transfection reagent (Invitrogen) according to the manufacturer’s protocol. Cells were serum-starved in DMEM supplemented with 5% (v/v) FBS (Gibco) and 2 mM GlutaMax (Gibco) overnight the day after transfection and treated with FGF21 for 6 hours at 37 °C with 5% CO2, after which the cells were lysed in Bright-Glo luciferase reagent (Promega). Luciferase activity was measured in relative luminescence units on the EnVision Multilabel Plate Reader (PerkinElmer) according to the manufacturer’s instructions. All assays were performed in duplicates. EC50 values were determined from a three-parameter logistic regression model with the least squares fit using GraphPad Prism version 7.

[1] = system: FGFR (expressed endogenously in HEK293T reporter cells); assay: Elk1-luciferase reporter assay in HEK293T reporter cells without β-Klotho (no KLB); assay type: cell-based, human; settings: d.n.c = did not converge
Method: as §1, with “The next day, cells were transfected with expression vectors encoding full-length β-Klotho WT or mutants using the Lipofectamine 2000 transfection reagent (Invitrogen) according to the manufacturer’s protocol.” left out

β-Klotho/FGFR1c = assay: Elk1-luciferase reporter assay in CHO reporter cells stably expressing human β-Klotho and FGFR1c; assay type: cell-based; settings: 4 h treatment, three independent experiments in duplicates, read-out: EC50, stimulation of Elk1-luciferase reporter activity
Method: To measure the signaling activity of Fc-FGF21 mutants, ELK luciferase assay was performed in CHO cells stably transfected with human FGFR1c, β-Klotho and the two reporter constructs described above. CHO reporter cells were maintained in DMEM supplemented with 10% (v/v) dialyzed FBS (GE Healthcare Life Sciences), 6 µg/mL puromycin (Sigma) and 400 μg/mL hygromycin (Invitrogen) in a 37 °C incubator with 5% CO2. Cells were plated on 96-well plates in growth medium and incubated overnight. The next day, cells were serum-starved in Ham’s F-12K Nutrient Mixture (Corning) supplemented with 1% (w/v) BSA (Sigma) overnight. Following starvation, Fc-FGF21 protein was added to cells in starvation medium. Plates were incubated for 4 hours at 37 °C with 5% CO2, after which the cells were lysed in Steady-Glo luciferase reagent (Promega). Luciferase activity was measured and analyzed as described above.

Molecule | EC50 (β-Klotho/FGFR complex; Fig 3A) | EC50 (β-Klotho/FGFR complex; Fig 3D) | EC50, stimulation of Elk1-luciferase reporter activity (no KLB) ([1]; Fig 3A, mean ± SD of three independent experiments) | EC50, stimulation of Elk1-luciferase reporter activity (no KLB) ([1]; Fig 3D) | EC50 (β-Klotho/FGFR1c)
B1 | 3.5 ± 1.1 nM | 2.87 ± 1.15 nM | d.n.c | d.n.c | 0.57 ± 0.09 nM
B2 |  |  |  |  | 1.85 ± 0.44 nM

Reference: publication PMC6056499, “A systematic dissection of sequence elements determining β-Klotho and FGF interaction and signaling” (Scientific Reports, 2018)
